Assay [1] concerns the target Recombinant TPO receptor (R&D Systems). Put plainly: BLI (Octet), biotinylated TPO receptor on streptavidin probe, second experiment. A general note: In BLI a coated tip is dipped into the sample, and binding shifts an interference pattern.
Assay [2] shares this target.

Like-named read-outs stand apart in the source and are kept apart here.

For orientation: Kd means the free concentration of one partner at which half of the binding sites on the other are occupied at equilibrium, for simple one-to-one binding. In the case of “recombinant human thrombopoietin (from UniProt P40225 22-353) (ligand)”, in assay [1], the Kd is 3 nM.

B1: HC+LC-TPO antibody (antibody)
heavy: QVQLVQSGAEVKKPGASVKVSCKASGYTFTYYAMHWVRQAPGQRPEWMGWINGGDGKTKYAQKFQGRLAITRDTSARTAYMELISLTSEDTAVYYCAKGAEMTVGSWGPGTLVTVSSASTKGPSVFPLAPCSRSTSESTAALGCLVKDYFPEPVTVSWNSGALTSGVHTFPAVLQSSGLYSLSSVVTVPSSNFGTQTYTCNVDHKPSNTKVDKTVERKCCVECPPCPAPPVANPIEGPTLRQWLAARARGGPSVFLFPPKPKDTLMISRTPEVTCVVVDVSQEDPEVQFNWYVDGVEVHNAKTKPREEQFNSTYRVVSVLTVLHQDWLNGKEYKCKVSNKGLPSSIEKTISKAKGQPREPQVYTLPPSQEEMTKNQVSLTCLVKGFYPSDIAVEWESNGQPENNYKTTPPVLDSDGSFFLYSRLTVDKSRWQEGNVFSCSVMHEALHNHYTQKSLSLSLGK
light: DIQMTQSPSSLSASVGDRVTLTCRASQGVRNALVWYQQKPGKAPERLIYAASILQSGVPSRFSGSGSGTEFTLTIGGLQPEDFATYYCLQHNSYPWTFGQGTKVEIKRTVAAPSVFIFPPSDEQLKSGTASVVCLLNNFYPREAKVQWKVDNALQSGNSQESVTEQDSKDSTYSLSSTLTLSKADYEKHKVYACEVTHQGLSSPVTKSFNRGECARSLIEGPTLRQWLAARAPI
With B1, the dissociation constant (Kd) in assay [2] worked out at 2.32 nM; in assay [1], 3 nM.

The values are drawn from patent US20120070434A1.
